# Numbering of substitutions follows the chain as printed.
# B1: CE115HA000 K52H (antibody, human IgG1, kappa, L234A L235A, N297A, name in Kabat numbering)
# heavy: QVQLVESGGGVVQPGRSLRLSCAASGFTFSNAWMHWVRQAPGKGLEWVAQIHAKSNNYATYYAESVKGRFTISRDDSKNSLYLQMNSLKTEDTAVYYCRYVHYGAYYGVDAWGQGTTVTVSSASTKGPSVFPLAPSSKSTSGGTAALGCLVKDYFPEPVTVSWNSGALTSGVHTFPAVLQSSGLYSLSSVVTVPSSSLGTQTYICNVNHKPSNTKVDKKVEPKSCDKTHTCPPCPAPEAAGGPSVFLFPPKPKDTLMISRTPEVTCVVVDVSHEDPEVKFNWYVDGVEVHNAKTKPREEQYASTYRVVSVLTVLHQDWLNGKEYKCKVSNKALPAPIEKTISKAKGQPREPQVYTLPPSRCELTKNQVSLSCAVKGFYPSDIAVEWESNGQPENNYKTTPPVLDSDGSFFLVSKLTVDKSRWQQGNVFSCSVMHEALHNHYTQKSLSLSPDYKDDDDK
# chain: EPKSSDKTHTCPPCPAPELLGGPSVFLFPPKPKDTLMISRTPEVTCVVVDVSHEDPEVKFNWYVDGVEVHNAKTKPREEQYNSTYRVVSVLTVLHQDWLNGKEYKCKVSNKALPAPIEKTISKAKGQPREPQVCTLPPSRDELTKNQVSLWCLVKGFYPSDIAVEWESNGQPENNYKTTPPVLDSDGSFFLYSKLTVDKSRWQQGNVFSCSVMHEALHNRYTQKSLSLSP
# light: DIVMTQSPLSLPVTPGEPASISCRSSQSLVHSNRNTYLHWYQQKPGQAPRLLIYKVSNRFSGVPDRFSGSGSGTDFTLKISRVEAEDVGVYYCGQGTQVPYTFGQGTKLEIKRTVAAPSVFIFPPSDEQLKSGTASVVCLLNNFYPREAKVQWKVDNALQSGNSQESVTEQDSKDSTYSLSSTLTLSKADYEKHKVYACEVTHQGLSSPVTKSFNRGEC
# notes: one-arm antibody
# B2: CE115HA000 N31K (antibody, human IgG1, kappa, L234A L235A, N297A, name in Kabat numbering)
# heavy: B1 heavy with N31K, H52K
# chain: B1 chain
# light: B1 light
# notes: one-arm antibody
# B3: CE115HA000 K64D (antibody, human IgG1, kappa, L234A L235A, N297A, name in Kabat numbering)
# heavy: B1 heavy with H52K, K67D
# chain: B1 chain
# light: B1 light
# notes: one-arm antibody
# B4: CE115HA000 L78I (antibody, human IgG1, kappa, L234A L235A, N297A, name in Kabat numbering)
# heavy: B1 heavy with H52K, L81I
# chain: B1 chain
# light: B1 light
# notes: one-arm antibody
# B5: CE115HA000 N31H (antibody, human IgG1, kappa, L234A L235A, N297A, name in Kabat numbering)
# heavy: B1 heavy with N31H, H52K
# chain: B1 chain
# light: B1 light
# notes: one-arm antibody
# B6: CE115HA000 K64E (antibody, human IgG1, kappa, L234A L235A, N297A, name in Kabat numbering)
# heavy: B1 heavy with H52K, K67E
# chain: B1 chain
# light: B1 light
# notes: one-arm antibody
# B7: CE115HA000 K52bD (antibody, human IgG1, kappa, L234A L235A, N297A, name in Kabat numbering)
# heavy: B1 heavy with H52K, K54D
# chain: B1 chain
# light: B1 light
# notes: one-arm antibody
# B8: CE115HA000 K52bA (antibody, human IgG1, kappa, L234A L235A, N297A, name in Kabat numbering)
# heavy: B1 heavy with H52K, K54A
# chain: B1 chain
# light: B1 light
# notes: one-arm antibody
# B9: CE115HA000 N31D (antibody, human IgG1, kappa, L234A L235A, N297A, name in Kabat numbering)
# heavy: B1 heavy with N31D, H52K
# chain: B1 chain
# light: B1 light
# notes: one-arm antibody
# B10: CE115HA000 N31I (antibody, human IgG1, kappa, L234A L235A, N297A, name in Kabat numbering)
# heavy: B1 heavy with N31I, H52K
# chain: B1 chain
# light: B1 light
# notes: one-arm antibody
# B11: CE115HA000 K52bN (antibody, human IgG1, kappa, L234A L235A, N297A, name in Kabat numbering)
# heavy: B1 heavy with H52K, K54N
# chain: B1 chain
# light: B1 light
# notes: one-arm antibody
# B12: CE115HA000 N31F (antibody, human IgG1, kappa, L234A L235A, N297A, name in Kabat numbering)
# heavy: B1 heavy with N31F, H52K
# chain: B1 chain
# light: B1 light
# notes: one-arm antibody
# B13: CE115HA000 K52bL (antibody, human IgG1, kappa, L234A L235A, N297A, name in Kabat numbering)
# heavy: B1 heavy with H52K, K54L
# chain: B1 chain
# light: B1 light
# notes: one-arm antibody
# B14: CE115HA000 N31Q (antibody, human IgG1, kappa, L234A L235A, N297A, name in Kabat numbering)
# heavy: B1 heavy with N31Q, H52K
# chain: B1 chain
# light: B1 light
# notes: one-arm antibody
# B15: CE115HA000 K52bR (antibody, human IgG1, kappa, L234A L235A, N297A, name in Kabat numbering)
# heavy: B1 heavy with H52K, K54R
# chain: B1 chain
# light: B1 light
# notes: one-arm antibody
# B16: CE115HA000 K52W (antibody, human IgG1, kappa, L234A L235A, N297A, name in Kabat numbering)
# heavy: B1 heavy with H52W
# chain: B1 chain
# light: B1 light
# notes: one-arm antibody
# B17: CE115HA000 K64A (antibody, human IgG1, kappa, L234A L235A, N297A, name in Kabat numbering)
# heavy: B1 heavy with H52K, K67A
# chain: B1 chain
# light: B1 light
# notes: one-arm antibody
# B18: CE115HA000 K75T (antibody, human IgG1, kappa, L234A L235A, N297A, name in Kabat numbering)
# heavy: B1 heavy with H52K, K78T
# chain: B1 chain
# light: B1 light
# notes: one-arm antibody
# B19: CE115HA000 N31A (antibody, human IgG1, kappa, L234A L235A, N297A, name in Kabat numbering)
# heavy: B1 heavy with N31A, H52K
# chain: B1 chain
# light: B1 light
# notes: one-arm antibody
# B20: CE115HA000 K52Y (antibody, human IgG1, kappa, L234A L235A, N297A, name in Kabat numbering)
# heavy: B1 heavy with H52Y
# chain: B1 chain
# light: B1 light
# notes: one-arm antibody
# B21: CE115HA000 K52N (antibody, human IgG1, kappa, L234A L235A, N297A, name in Kabat numbering)
# heavy: B1 heavy with H52N
# chain: B1 chain
# light: B1 light
# notes: one-arm antibody
# B22: CE115HA000 K52bY (antibody, human IgG1, kappa, L234A L235A, N297A, name in Kabat numbering)
# heavy: B1 heavy with H52K, K54Y
# chain: B1 chain
# light: B1 light
# notes: one-arm antibody
# B23: CE115HA000 K52bS (antibody, human IgG1, kappa, L234A L235A, N297A, name in Kabat numbering)
# heavy: B1 heavy with H52K, K54S
# chain: B1 chain
# light: B1 light
# notes: one-arm antibody
# B24: CE115HA000 K52I (antibody, human IgG1, kappa, L234A L235A, N297A, name in Kabat numbering)
# heavy: B1 heavy with H52I
# chain: B1 chain
# light: B1 light
# notes: one-arm antibody
# B25: CE115HA000 N31G (antibody, human IgG1, kappa, L234A L235A, N297A, name in Kabat numbering)
# heavy: B1 heavy with N31G, H52K
# chain: B1 chain
# light: B1 light
# notes: one-arm antibody
# B26: CE115HA000 N31R (antibody, human IgG1, kappa, L234A L235A, N297A, name in Kabat numbering)
# heavy: B1 heavy with N31R, H52K
# chain: B1 chain
# light: B1 light
# notes: one-arm antibody
# B27: CE115HA000 K52R (antibody, human IgG1, kappa, L234A L235A, N297A, name in Kabat numbering)
# heavy: B1 heavy with H52R
# chain: B1 chain
# light: B1 light
# notes: one-arm antibody
# B28: CE115HA000 K64S (antibody, human IgG1, kappa, L234A L235A, N297A, name in Kabat numbering)
# heavy: B1 heavy with H52K, K67S
# chain: B1 chain
# light: B1 light
# notes: one-arm antibody
# B29: CE115HA000 K75R (antibody, human IgG1, kappa, L234A L235A, N297A, name in Kabat numbering)
# heavy: B1 heavy with H52K, K78R
# chain: B1 chain
# light: B1 light
# notes: one-arm antibody
# B30: CE115HA000 K52bQ (antibody, human IgG1, kappa, L234A L235A, N297A, name in Kabat numbering)
# heavy: B1 heavy with H52K, K54Q
# chain: B1 chain
# light: B1 light
# notes: one-arm antibody
# B31: CE115HA000 K64Q (antibody, human IgG1, kappa, L234A L235A, N297A, name in Kabat numbering)
# heavy: B1 heavy with H52K, K67Q
# chain: B1 chain
# light: B1 light
# notes: one-arm antibody
# B32: CE115HA000 K52S (antibody, human IgG1, kappa, L234A L235A, N297A, name in Kabat numbering)
# heavy: B1 heavy with H52S
# chain: B1 chain
# light: B1 light
# notes: one-arm antibody
# Target: T1, CD3 epsilon homodimer protein (UniProt P07766 23-126)
# T1 construct: also called CD3 (CD3 epsilon)
# T1 sequence (P07766 23-126): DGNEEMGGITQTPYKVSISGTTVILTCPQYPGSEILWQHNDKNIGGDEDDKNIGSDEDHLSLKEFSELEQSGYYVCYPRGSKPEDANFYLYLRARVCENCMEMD
# Test: SPR, CD3 epsilon homodimer on chip, one-arm antibody as analyte;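 note: surface plasmon resonance at 25 °C with CD3 epsilon homodimer amine-coupled to a CM4 sensor chip, antibody injected as analyte, HBS-EP+ as running buffer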
row,Binder,KD ratio (KD of CE115HA000/KD of altered form)
1,B1,2.65
2,B2,0.97
3,B3,0.76
4,B4,1.08
5,B5,0.96
6,B6,0.84
7,B7,0.56
8,B8,0.58
9,B9,1.14
10,B10,0.62
11,B11,0.43
12,B12,1.24
13,B13,0.61
14,B14,0.94
15,B15,0.91
16,B16,2.69

row,Binder,KD ratio (KD of CE115HA000/KD of altered form)
1,B17,0.81
2,B18,0.75
3,B19,0.96
4,B20,6.47
5,B21,3.29
6,B22,0.61
7,B23,0.58
8,B24,3.54
9,B25,1.37
10,B26,0.98
11,B27,0.8
12,B28,0.85
13,B29,0.88
14,B30,0.62
15,B31,0.87
16,B32,92.1

# — patent US20210388087A1 (Chugai, published 2021)
